From patent US20110294738A1, “PTHR1 RECEPTOR COMPOUNDS” (priority 2008, published 2011)
Where two headings read alike, the source gives them in different places. Peptide text beside a SMILES is read from it. * marks the point of attachment. Palmitoyl = CCCCCCCCCCCCCCCC(=O)*

Assays:
PTHR1 [1] = molecular target: T1, PTHR1 (Rattus norvegicus, UniProt P25961)
T1 sequence (P25961 27-591): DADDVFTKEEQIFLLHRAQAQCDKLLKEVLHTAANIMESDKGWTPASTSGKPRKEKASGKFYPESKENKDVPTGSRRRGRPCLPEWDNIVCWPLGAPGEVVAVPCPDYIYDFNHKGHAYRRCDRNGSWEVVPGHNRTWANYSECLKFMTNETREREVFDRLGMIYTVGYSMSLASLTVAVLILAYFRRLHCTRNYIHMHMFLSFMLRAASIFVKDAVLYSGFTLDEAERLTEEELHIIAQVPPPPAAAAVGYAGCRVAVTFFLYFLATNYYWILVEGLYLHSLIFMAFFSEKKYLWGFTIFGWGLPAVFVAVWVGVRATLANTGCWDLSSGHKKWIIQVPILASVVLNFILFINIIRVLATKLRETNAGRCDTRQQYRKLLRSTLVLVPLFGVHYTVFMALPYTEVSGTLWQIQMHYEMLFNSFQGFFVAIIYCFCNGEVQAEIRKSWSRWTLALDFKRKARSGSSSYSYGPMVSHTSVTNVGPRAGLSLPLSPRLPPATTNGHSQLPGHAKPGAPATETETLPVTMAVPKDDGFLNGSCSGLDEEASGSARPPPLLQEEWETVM
Procedure: (§1) cAMP Screening Assay Using DiscoveRX XS+ Kit
(§2) UMR-106 cells were seeded in 96-well white plates at 10K cells/well in growth media. Twenty four hours after seeding, cell media was removed by gentle dumping and replaced with 30 μL of compounds diluted to 10 μM final concentration in assay buffer (Hank's balanced Salt Solution, 20 mM HEPES, pH 7.4, 0.1 μM IBMX). After 30 minute incubation at room temperature, 10 μL human PTH1-34 serial diluted in assay buffer was added. Cells were incubated at 37° C. for 15 minutes before 10 μL of water soluble analog of forskolin, NKH477 was added to final concentration of 10 μM followed by 60 minute incubation at room temperature. DiscoveRX cAMP XS+ kit reagents were then added following manufacture protocol. Briefly, 10 μL of antibody was added to each well followed by 40 μL of ED/Lysis buffer mix (1/5/19 for Galacon-star/Emerald/Lysis buffer and then 1:1 with ED). After 1 hour incubation, 40 μL of EA reagent was added followed by at least 1 hour incubation before the plates were read on TopCount reader. Data was analyzed using GraphPad Prism. PTH1-34 dose-response curves were fitted using non-linear curve fit (Y=Bottom+(Top−Bottom)/(1+10̂((Log EC50−X)*HillSlope))). PTH1-34 EC50 values calculated in the presence of compounds were compared to that in the presence of vehicle control. The ratio of the EC50 values were calculated and presented as fold shift (EC50 compound/EC50 vehicle). The effect of compounds on PTH1-34 stimulated maximal response was also assessed and was presented percent inhibition (1−(Emax compound/Emax vehicle)).

PTHR1 [2] = molecular target: T1, PTHR1; experiment: cAMP screening assay using DiscoveRX XS+ kit (PTH1-34 dose-response in UMR-106 cells); conditions: compound 10 μM; for Inhibition of Maximal Response: PTH1-34 stimulated maximal response, 1−(Emax compound/Emax vehicle); for Fold Shift of EC50: PTH1-34 EC50 compound/EC50 vehicle
Procedure: as §1, §2

Inhibition of Maximal Response (PTHR1 [2]) [%] | Molecule | Fold Shift of EC50 (PTHR1 [1]) | Fold Shift of EC50 (PTHR1 [2])
40.80 | GSEKKYLWGFT [Compound 42] | 1.3 | –
−5.80 | TNAGRSDTRQQYRKLLF [Compound 83] | 7 | –
15.10 | TNAGRSDTRQQYRF [Compound 70] | 2 | –
13.00 | LAYFRRLHSTRNYIH [Compound 5] | 1 | –
– | CCCCCCCCCCCCCCCC(=O)N[C@@H](Cc1c[nH]c2ccccc12)C(=O)N[C@H](C(=O)N[C@@H](CC(C)C)C(=O)N[C@@H](C)C(=O)N[C@@H](CC(C)C)C(=O)N[C@@H](CC(=O)O)C(=O)NC(Cc1ccccc1)C(=O)N[C@@H](CCCCN)C(=O)N[C@@H](CCCNC(=N)N)C(=O)N[C@@H](CCCCN)C(=O)N[C@@H](C)C(=O)N[C@@H](CCCNC(=N)N)C(N)=O)[C@@H](C)O (stereo partly shown) [Compound 103] | 1.2 | –
26.60 | SSYFRRLHSTRNYIH [Compound 12] | – | 0.9
5.20 | TNAGRSDTRQQYRKLLFA [Compound 86] | 3.6 | –
8.30 | TNAGRSDTRQQARKLL [Compound 92] | – | 5
−47.60 | RETNAGRSDTRQQYRF [Compound 61] | 0.7 | –
13.50 | SGRVLATKLR [Compound 71] | 0.8 | –
−8.30 | NIVRVLATKLRETNAGRSD [Compound 44] | 2 | –
6.90 | DTRQQYRKLLKS [Compound 67] | 6 | –
29.30 | LYLHSLIFMAFFSEKKYL [Compound 39] | 1.3 | –
– | AGRSDTRQQYRKLLKS [Compound 65] | 14.65 | –
−24.40 | AGRSDTRQQYRKLLFA [Compound 94] | 18.7 | –
12.60 | RVLATKLRETNAGR [Compound 75] | 1.1 | –
1.20 | RETNAGRSDTRQ [Compound 63] | 1.1 | –
−20.40 | TNAGRSDTRQQYRKAL [Compound 89] | – | 2.3
0.50 | NGEVQAEIKKSWSRWTLA [Compound 98] | 1 | –
5.50 | RRLHSTRNYIHMH [Compound 1] | 1.3 | –
−67.00 | TNAGRSDTRQAYRKLL [Compound 93] | – | 13.4
1.50 | RRLHSTRNYIHM [Compound 15] | 1.7 | –
4.30 | RETNAGRSDTRQQYRK [Compound 60] | 3.3 | –
8.30 | KLRETNAGRSDTRQQRKLL [Compound 47] | 2.7 | –
0.80 | TNAARSDTRQQYRKLL [Compound 80] | – | 2.3
9.90 | TNAGRADTRQQYRKLL [Compound 77] | 6.9 | –
26.10 | NIVRVLATKLRE [Compound 55] | 0.6 | –
27.50 | HSLIFMAFFSEKKYL [Compound 33] | 1.1 | –

Inhibition of Maximal Response (PTHR1 [2]) [%] | Molecule | Fold Shift of EC50 (PTHR1 [1]) | Fold Shift of EC50 (PTHR1 [2])
−5.70 | AGRSDTRQQYRKLLFS [Compound 95] | – | 19
−24.90 | RRLHSTRNYIH [Compound 2] | – | 1.9
36.00 | AYFRRLHSTRNYIH [Compound 7] | 1.2 | –
−74.20 | LAYFRRLHSTR [Compound 4] | 0.9 | –
26.80 | NGEVQAEIKKSWSR [Compound 100] | 1.8 | –
22.20 | SGRVLATKLRETNAGR [Compound 74] | 1.9 | –
26.80 | SRWTLALDFKRKAR [Compound 104] | 1.2 | –
– | RRLHSTRNYIHMHL [Compound 16] | 2.45 | –
– | TNAGRSDTRQQYRKLL [Compound 68] | 12.36 | –
21.00 | TNAGRSDTRQQYRALL [Compound 90] | – | 2
– | RETNAGRSDTRQQYRKLLKS [Compound 51] | 12.45 | –
3.00 | RETNAGRSDTRQQYRKLL [Compound 59] | 5.2 | –
2.40 | TNAGASDTRQQYRKLL [Compound 76] | – | 16.9
2.50 | TNAGRSDTRQQYRK [Compound 69] | 5.2 | –
34.00 | Pal-NGEVQAEIKKSWSRWTLALD-amide (Palmitoyl-NGEVQAEIKKSWSRWTLALD-NH2; SMILES CCCCCCCCCCCCCCCC(=O)N[C@@H](CC(N)=O)C(=O)NCC(=O)N[C@@H](CCC(=O)O)C(=O)N[C@H](C(=O)N[C@@H](CCC(N)=O)C(=O)N[C@@H](C)C(=O)N[C@@H](CCC(=O)O)C(=O)N[C@H](C(=O)N[C@@H](CCCCN)C(=O)N[C@@H](CCCCN)C(=O)N[C@@H](CO)C(=O)N[C@@H](Cc1c[nH]c2ccccc12)C(=O)N[C@@H](CO)C(=O)N[C@@H](CCCNC(=N)N)C(=O)N[C@@H](Cc1c[nH]c2ccccc12)C(=O)N[C@H](C(=O)N[C@@H](CC(C)C)C(=O)N[C@@H](C)C(=O)N[C@@H](CC(C)C)C(=O)N[C@@H](CC(=O)O)C(N)=O)[C@@H](C)O)[C@@H](C)CC)C(C)C) [Compound 105] | 1.1 | –
−38.80 | RQQYRKLLKSTL [Compound 57] | 15.6 | –
39.40 | SGRRLHSTRNYIHMH [Compound 17] | 2.8 | –
9.80 | TNAGRSDTRQQYAKLL [Compound 91] | – | 2
12.70 | LAYFRRLHSTRNYI [Compound 9] | 1.1 | –
32.30 | SGRVLATKLRETNA [Compound 73] | 0.8 | –
19.80 | GSYFRRLHSTRNYIH [Compound 11] | – | 1.1
−29.20 | TNAGRSDTAQQYRKLL [Compound 78] | – | 12.7
19.50 | TNAGRSDTRQQYRKLLFS [Compound 85] | – | 6.9
−20.80 | TNAGRSDTRAQYRKLL [Compound 81] | – | 13.8
1.20 | TNAGRSDARQQYRKLL [Compound 79] | – | 7.2
– | RETNAGRSDTRQQYRKLLFS [Compound 58] | 17.74 | –
– | CCCCCCCCCCCCCCCC(=O)N[C@@H](CC(N)=O)C(=O)NCC(=O)N[C@@H](CCC(=O)O)C(=O)N[C@H](C(=O)N[C@@H](CCC(N)=O)C(=O)N[C@@H](C)C(=O)N[C@@H](CCC(=O)O)C(=O)N[C@H](C(=O)N[C@@H](CCCCN)C(=O)N[C@@H](CCCCN)C(=O)N[C@@H](CO)C(=O)N[C@@H](Cc1c[nH]c2ccccc12)C(N)=O)[C@@H](C)CC)C(C)C [Compound 99] (Palmitoyl-NGEVQAEIKKSW-NH2) | 1 | –

Molecule | Inhibition of Maximal Response (PTHR1 [2]) [%] | Fold Shift of EC50 (PTHR1 [1]) | Fold Shift of EC50 (PTHR1 [2])
LYLHSLIFMSFFSEKK [Compound 40] | 28.30 | – | 1.5
Pal-TNAGRSATRQQYRKLL-amide (Palmitoyl-TNAGRSATRQQYRKLL-NH2; SMILES CCCCCCCCCCCCCCCC(=O)N[C@H](C(=O)N[C@@H](CC(N)=O)C(=O)N[C@@H](C)C(=O)NCC(=O)N[C@@H](CCCNC(=N)N)C(=O)N[C@@H](CO)C(=O)N[C@@H](C)C(=O)N[C@H](C(=O)N[C@@H](CCCNC(=N)N)C(=O)N[C@@H](CCC(N)=O)C(=O)N[C@@H](CCC(N)=O)C(=O)N[C@@H](Cc1ccc(O)cc1)C(=O)N[C@@H](CCCNC(=N)N)C(=O)N[C@@H](CCCCN)C(=O)N[C@@H](CC(C)C)C(=O)N[C@@H](CC(C)C)C(N)=O)[C@@H](C)O)[C@@H](C)O) [Compound 82] | −21.60 | – | 23.4
LAYFRRLHSTRNY [Compound 3] | −51.40 | – | 0.7
